# Laboratory results taken from patent US20210032664, “ENGINEERED MEGANUCLEASES WITH RECOGNITION SEQUENCES FOUND IN THE HUMAN BETA-2 MICROGLOBULIN GENE” (Precision Biosciences, Inc., published 2021).
# Where a chain is given by its changes, count along the chain named. Numbers in names are those of the source.
# T1: B2M 13-14x.93 QE (Artificial Sequence)
# T1 chain: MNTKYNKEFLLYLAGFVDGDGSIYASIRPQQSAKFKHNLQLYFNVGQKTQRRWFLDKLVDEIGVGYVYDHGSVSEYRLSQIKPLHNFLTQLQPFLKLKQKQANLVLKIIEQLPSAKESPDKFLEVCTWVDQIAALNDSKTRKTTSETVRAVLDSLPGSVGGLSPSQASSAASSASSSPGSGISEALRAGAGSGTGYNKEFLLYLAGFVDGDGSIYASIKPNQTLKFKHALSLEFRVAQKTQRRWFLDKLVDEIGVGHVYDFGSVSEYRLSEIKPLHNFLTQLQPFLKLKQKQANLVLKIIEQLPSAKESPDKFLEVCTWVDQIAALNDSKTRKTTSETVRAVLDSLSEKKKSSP
# T2: B2M 13-14x.93 EEK66 (Artificial Sequence)
# T2 chain: T1 chain with Y66K, Q80E
# T3: B2M 13-14x.93 EEY66 (Artificial Sequence)
# T3 chain: T1 chain with Q80E
# T4: B2M 13-14x.93 EQK66 (Artificial Sequence)
# T4 chain: T1 chain with Y66K, Q80E, E271Q
# T5: B2M 13-14x.93 EQR66 (Artificial Sequence)
# T5 chain: T1 chain with Y66R, Q80E, E271Q
# B1: B2M 13-14 recognition sequence (dsDNA)
# DNA 1: CTATCTCTTGTACTACACTGAA
# DNA 2: TTCAGTGTAGTACAAGAGATAG
# How the values were obtained:
# Assay in all cases: cell_activity; human T cells, 1 ug mRNA, day 3
# Settings in all cases: tags: N-terminal SV40 NLS
# B2M 13-14x.93 QE = target: T1, B2M 13-14x.93 QE
# Method: (§1) To test these variants of B2M 13-14x.93, donor human T cells were stimulated with anti-CD3 and anti-CD28 antibodies for 3 days, then electroporated with mRNA encoding a given B2M 13-14 meganuclease (1 μg) using the Amaxa 4D-Nucleofector (Lonza) according to the manufacturer's instructions. At 3 days post-electroporation, cells were stained with an antibody recognizing β-2 microglobulin (BD Biosciences) and analyzed by flow cytometry.
# B2M 13-14x.93 EEK66 = target: T2, B2M 13-14x.93 EEK66
# Method: as §1
# B2M 13-14x.93 EEY66 = target: T3, B2M 13-14x.93 EEY66
# Method: as §1
# B2M 13-14x.93 EQK66 = target: T4, B2M 13-14x.93 EQK66
# Method: as §1
# B2M 13-14x.93 EQR66 = target: T5, B2M 13-14x.93 EQR66
# Method: as §1
binder,measurement,setting,value
B1,activity,B2M 13-14x.93 QE,37 % B2M-negative
same,activity,B2M 13-14x.93 EEK66,3.84 % B2M-negative
same,activity,B2M 13-14x.93 EEY66,1.58 % B2M-negative
same,activity,B2M 13-14x.93 EQK66,6.81 % B2M-negative
same,activity,B2M 13-14x.93 EQR66,5.12 % B2M-negative
